Measurements taken from the supplement of paper PMC9170038.

Tested on: MS2 coat protein
Test: apparent KD of MS2 coat protein; designed switch direction (-1 OFF switch, 1 ON switch): -1; higher = weaker reporter binding
Procedure, shortened: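 Three titration conditions were used: no input, 200 uM small-molecule ligand, and an oligonucleotide input. In each, SNAP-549-labelled MS2 coat protein was raised from 0.7 or 1.5 nM, doubling, to 3 µM over designed RNA switches transcribed on Illumina chips by stalled E. coli RNA polymerase. Curve fits of normalised cluster fluorescence gave values whose per-design median over clusters is the apparent KD.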

[1] = input ligand: microRNA oligo, concentration not stated
[2] = Eterna round: R95, input ligand: microRNA oligo, concentration not stated
[3] = Eterna round: R95, input ligand: FMN 200 uM
[4] = Eterna round: R95, input ligand: none

Sequence	apparent KD of MS2 coat protein (input ligand: FMN 200 uM)	apparent KD of MS2 coat protein (input ligand: none)	apparent KD of MS2 coat protein [2]	further results
GUGCCGCGAGGAUAUACAGACGGGUCCAAAACGUGUCUCGGACUUGAGGAUCACCCAAGUAGAAGGCGUUUCAG [salish99_ex2_r4_620] (Eterna round: R97, puzzle: Exclusion 2)	18.6 nM	18.4 nM		
GUGCUAUAGGAAGGAUAUACUUCAUUAGACUAACAUGAGGAUCACCCAUGUAACCUUAUGUAUGUGUAGAAGGUCCAUAGCUUA (Eterna round: R96, puzzle: Exclusion NG 2)	15.5 nM	20.1 nM		apparent KD of MS2 coat protein [1]: 13.3 nM
GUGGGUUACAUGAGGAUCACCCAUGUAGAGUGGGAAGAGAGAUAGGAUAUGAUGUGAGAAUCAUAUCAGAAGGAUCGAGACUCG [AK ExNG3-2.3] (Eterna round: R96, puzzle: Exclusion NG 3)	512 nM	354 nM		apparent KD of MS2 coat protein [1]: 158 nM
GUGGGUUACAUGAGGAUCACCCAUGUAUAGUGGGAAGAGAUAUAGGAUAUAAUAUAAAAAUUAUAUUAGAAGGAUAGAGACUAG [AK ExNG3-1.2] (Eterna round: R96, puzzle: Exclusion NG 3)	491 nM	505 nM		apparent KD of MS2 coat protein [1]: 285 nM
GUGGGUUAUGUCAGGAUAUGGCCGUUAGGGCGACGCCAGAAGGGACAUGAGGAUCACCCAUGUCUCCGGGCAUC [BmEX4 C.10] (Eterna round: R97, puzzle: Brourd's mod of Exclusion 4)	15.1 nM	14.8 nM		
GUGUACAGAGGAUAUACAAUAGGAGUUACGAAAGUAACUUCACAUGAGGAUCACCCAUGUAGAAGGCUGUACAC [Dot plot directed v8] (puzzle: Exclusion 2)			17.7 nM	
GUGUACGGAGGAUAUAUAUGGGCAGCAUACGCUGCAGCUUCACAUGAGGAUCACCCAUGUAGAAGGCUGUACAC [Mat - Exclusion 2 - Mod of Hyphema - D100] (Eterna round: R96, puzzle: Exclusion 2)	223 nM	24.8 nM		apparent KD of MS2 coat protein [1]: 18.5 nM
GUGUACGGAGGAUAUAUAUGGGCAGCAUACGCUGCAGCUUCACAUGAGGAUCACCCAUGUAGAAGGCUGUACAC [Mat - Exclusion 2 - Mod of Hyphema - D100] (puzzle: Exclusion 2)			22 nM	
GUGUAGACAGGAUAUGCUUUGAGCGUAUGAGAGUAGGCUCGACAUGAGGAUCACCCAUGUAGAAGGGUCUACAC [LRO-Excl2-03] (puzzle: Exclusion 2)			10.1 nM	
GUGUAGAUAGGAUAUGCAAGAGUCUAGCGAAGCUAGAUUCUACAUGAGGAUCACCCAUGUAGAAGGGUCUACAC [Fiskers Ex 2 - 29] (puzzle: Exclusion 2)			17.3 nM	
GUGUAGUCAGGAUAUACAUAGGAAGAGAAGAGAAGAGAAGCACAUGAGGAUCACCCAUGUAGAAGGGACAGUGU [Excluse me!! 4 - Jieux - Exclusion 2] (Eterna round: R96, puzzle: Exclusion 2)				apparent KD of MS2 coat protein [1]: 40.1 nM
GUGUAGUCAGGAUAUACAUAGGAAGAGAAGAGAAGAGAAGCACAUGAGGAUCACCCAUGUAGAAGGGACAGUGU [Excluse me!! 4 - Jieux - Exclusion 2] (puzzle: Exclusion 2)			61.4 nM	apparent KD of MS2 coat protein [3]: 85.7 nM; apparent KD of MS2 coat protein [4]: 61 nM
GUGUAGUCAGGAUAUACAUGAGGAUCACCCAUGUGAAUAAGAUAGAAUAAGAUAAAGUGUAGAAGGGACAGUGU [Excluse me!!! 4 - Jieux - Exclusion 3] (puzzle: Exclusion 3)			34.1 nM	apparent KD of MS2 coat protein [3]: 33.8 nM; apparent KD of MS2 coat protein [4]: 35.9 nM
GUGUCUCGUGUAGGAUAUGCGCGAGGUCUUUGUGCAGAAGGACAUGAGGAUCACCCAUGUAUUCCGCGGCGCGGGCAUGUGUCC [-29/-27 Kcal and A 18%] (Eterna round: R96, puzzle: Exclusion NG 1)	249 nM	52.5 nM		apparent KD of MS2 coat protein [1]: 46.7 nM
GUGUGCUGAGGAUAUACAGAGGAAGAUAAGAUAAGAUAAUGACAUGAGGAUCACCCAUGUAGAAGGCAGAGUGU [Excluse me!! 15 - Jieux - Exclusion 2] (puzzle: Exclusion 2)			30.5 nM	
GUGUUACAAGUGAGGAUAUCUGCUUUGGUAGAAGCGGAGAAGGCACAUGAGGAUCACCCAUGUCAGGAGUCCAU [Eternabot (L2) Solution 20] (Eterna round: R97, puzzle: Brourd's mod of Exclusion 4)	393 nM	59.3 nM		
GUGUUGCGAGGAUAUAUAAGGGUAUGUUCUUAGGAUAUGGAACAUGAGGAUCACCCAUGUAGAAGGUGCAUAAC [JR_Ex2_Sub046] (Eterna round: R97, puzzle: Exclusion 2)	459 nM	761 nM		

Sequence	apparent KD of MS2 coat protein (input ligand: FMN 200 uM)	apparent KD of MS2 coat protein (input ligand: none)	apparent KD of MS2 coat protein [2]	further results
GUUAGACAUGAGGAUCACCCAUGUGAGGAUAUGAUGUGAAUAAAUAAUUAAUUAAGUAUCAGAAGGCACAUAUG [Mat - Mod of Hyphema D32] (puzzle: Exclusion 1)			119 nM	
GUUAGUUAAGGAUAUACUGGGAGCUGCGGCGUCUCGCCGCAACAUGAGGAUCACCCAUGUAGAAGGUGACCGUU [JL ViennaUCT Enbibi mod 6] (puzzle: Exclusion 2)			283 nM	
GUUGUGUGAGGAUAUGCCUGGCCGUGAGGCCAGAUUGGGUGGCAGAAGGUACAUGAGGAUCACCCAUGUACGGG [salish99_ex4_4_005] (Eterna round: R97, puzzle: Exclusion 4)	47.7 nM	47.5 nM		
GUUGUGUGAGGAUAUGCCUGGCCGUGAGGCCGGAUUGGGUGGCAGAAGGUACAUGAGGAUCACCCAUGUACGGG [salish99_ex4_4_007] (Eterna round: R97, puzzle: Exclusion 4)	45.4 nM	30.9 nM		
GUUGUUACUGAGGAUAUUAUUUUAUUCGAUUGAUAAGAAGGCAGUACAUGAGGAUCACCCAUGUGGGUAGCUAG [Polaris20] (Eterna round: R97, puzzle: Exclusion 6)	434 nM	95.5 nM		
GUUGUUCGGUAGGAUAUGAAACAGCAGAGAUUGUCAGAAGGGCCGACAUGAGGAUCACCCAUGUGUGCGAAAGC [Eternabot (L1) Solution 26] (Eterna round: R97, puzzle: Exclusion 6)	35.1 nM	50 nM		
GUUGUUUAUGUAGGAUAUGCCUGGCGUGCCUUCGCAGAAGGACAUGAGGAUCACCCAUGUAUUGCGGUCUGCGUUCAGAUCGCU [salish99_ExNG1_r4_023] (Eterna round: R96, puzzle: Exclusion NG 1)	49.8 nM	52.7 nM		apparent KD of MS2 coat protein [1]: 38.8 nM
GUUUCACAUGAGGAUCACCCAUGUGAGGAUAUGUUAUUAAUGGCGAUAGUUAUUGGUGGCAGAAGGCGCGUGAU [JR_Exc1_Sub010] (Eterna round: R97, puzzle: Exclusion 1)	115 nM	50.2 nM		
GUUUCGAGACGGAGAUCCGACAUGAGGAUCACCCAUGUCUCGUAAGCUUUUUGCUCGUCUUAUACUCCUCUGUUCUC [Elimod 49 - Jieux - Sensor, turn-off variant 1] (Eterna round: R97, puzzle: Sensor, turn-off variant 1)	26 nM	27.2 nM		
GUUUUCAGACGGAGAUCCUACAUGAGGAUCACCCAUGUCUCUCUUGUUAAUUGCUCGUCUUUUCCUCCUCUGUUCUC [Elimod 34 - Jieux - Sensor, turn-off variant 1] (Eterna round: R97, puzzle: Sensor, turn-off variant 1)	545 nM	605 nM		
UAAAAGCGAGGAUAUACAUGAGGAUCACCCAUGUGAGGCGAAAAGCCUCGGGCCAUCAGUAGAAGGUGCAAAAC [Arcecela] (puzzle: Exclusion 3)			68.9 nM	apparent KD of MS2 coat protein [3]: 79 nM; apparent KD of MS2 coat protein [4]: 112 nM
UAAAAUAGUGUGAGGAUAUGCUGGUCCUUGGAUCAGCAGAAGGCACAUGAGGAUCACCCAUGUAGUUAAUAAUA [Mat - Exclusion 4 - JL Mod - D25] (puzzle: Brourd's mod of Exclusion 4)			36.8 nM	apparent KD of MS2 coat protein [3]: 196 nM; apparent KD of MS2 coat protein [4]: 34.4 nM
UAAAAUUCGCGAGGAUAUGCGACCUAAUGGGAGGAUUGUCACAUGAGGAUCACCCAUGUCAGUCAGCAGAAGGCGCACCUGGUU [Anedmaon] (Eterna round: R96, puzzle: Exclusion NG 2)	628 nM	99.6 nM		apparent KD of MS2 coat protein [1]: 116 nM
UAAAGCUUUGAGAUCCUUAACAUGAGGAUCACCCAUGUUCGUCUUAUGAUGGUCUGAUCCCUGAGGAUCGGACCGUU [Mat - Sensor v3 - turn-off var 1 - JL Mod - D5] (puzzle: Sensor v3, turn-off variant 1)			26.6 nM	apparent KD of MS2 coat protein [3]: 269 nM; apparent KD of MS2 coat protein [4]: 252 nM
UAAAUGUGAGGAUAUCAGGUGUGCUAGCAUACUGGUACAUCUGAGAAGGCACAUGAGGAUCACCCAUGUUCCUU [Mat - Exclusion 4 - Mod of JL - D52] (puzzle: Exclusion 4)			16.7 nM	
UAAAUGUGAGGAUAUUCGUAGAACUCGGAGACGAGUUUUACGGAGAAGGCACAUGAGGAUCACCCAUGUUCCUU [Mat - Exclusion 4 - JL Mod - D2] (Eterna round: R97, puzzle: Exclusion 4)	169 nM	28.6 nM		
UAACAAAUGGUCAGGAUAUCACUCCCGGCCCAGAGUGAGAAGGGACAUGAGGAUCACCCAUGUAUGAUUCUCAC [jl-ex4-4.54 ViennaUCT mod] (Eterna round: R97, puzzle: Brourd's mod of Exclusion 4)	19.7 nM	15.1 nM		
